Reference: patent US20210206842A1 (NATIONAL RESEARCH COUNCIL OF CANADA, published 2021)

Legend:
[1] = target: human Nav1.7 polypeptide (human, UniProt Q15858 1-1988); test: cell-based or functional assay
[2] = target: T1, FC5DIE3IR recombinant protein; test: phage ELISA, phage supernatant on coated FC5DIE3IR or PBS wells, anti-M13-HRP, TMB
T1 construct: Made in CHO-3E7 cells; also called FC5DIE31R; FC5DIE3R
Description: FIG. 25A Phages were rescued from individual colonies, selected from the fourth round of panning and grown overnight at 37° C. Wells of a Nunc microtiter plate were coated with FC5DIE3IR and FC5 proteins at 5 μg/ml in PBS. […] Binding was detected with TMB substrate and A450 was measured using an ELISA plate reader.
Additional rounds (up to 3) of panning were performed by coating the ELISA plate with the same proteins and using the amplified phages after each round of panning as described above. After four rounds of panning, 77 randomly picked colonies were grown and subjected to monoclonal phage ELISA screening as described previously (Arbabi-Ghahroudi et al., 2009) except that 5 μg/ml of FC5DIE3IR and FC5 VHH (the negative control) were coated onto a microtiter plate. All positive clones specifically binding to FC5DIE3IR were sequenced and unique VHH sequences were selected for sub-cloning, large-scale expression, and purification.

[3] = target: T1, FC5DIE3IR recombinant protein; test: SPR (Biacore T200), single cycle kinetics, VHH flowed over immobilized FC5DIE3IR, 25 C
Description: (§1) Surface Plasmon Resonance for VHH antibodies. […] Monomeric VHH fractions were collected and protein concentration determined by measuring A280 measurement. Using a Biacore T200 instrument (GE Healthcare), approximately 500-1000 RUs of FC5DIE3IR, FC5 and an irrelevant VHH (2A3-H4) were immobilized on a CM5 Series S sensor chip (GE Healthcare) at pH 4.0 using standard amine coupling according to the manufacturer's instructions (GE Healthcare). […] Surfaces were regenerated by washing with a 120 s pulse of 10 mM glycine pH 1.5. Data were analyzed with Biacore T200 Software v 3.0 and affinities determined using steady state binding or a 1:1 binding model.
(§2) Surface Plasmon Resonance (SPR).

[4] = target: T2, VHH FC5; test: phage ELISA of immune-library colonies, phage supernatant on coated FC5DIE3IR or FC5, anti-M13-HRP, TMB
T2 construct: put together from its FR and CDR entries; also called FC5-VHH; FC5 control

[5] = target: T2, VHH FC5; test: ELISA, hybridoma supernatant on coated purified FC5-VHH
Description: (§3) Screening. Hybridoma supernatants were screened by ELISA to detect specific binders. To this end, 96-well half-area plates (Costar #3690) were coated with 25 μl of FC5DIE3IR or FC5-VHH or FC5-hFc-1X0 at 5 μg/ml in PBS and incubated overnight at 4° C. Microplates were washed 3 times with PBS, blocked with PBS-BSA 1%, and 25 μl of hybridoma supernatants were added and incubated at 37° C., 5% CO₂ for 2 hours. […] After 4 washes with PBS-Tween 20 0.05%, 25 μl of a 1 mg/ml pNPP substrate solution was added and further incubated for one hour at 37° C.

[6] = target: T2, VHH FC5; test: SPR, single cycle kinetics, Fc-captured mAb, FC5 flowed, 25 C
Description: HBS-EP running buffer used for SPR experiments. […] Test binding experiments of FC5 control and FC5DIE3IR involved flowing 1 μM concentrations of SEC-pure material over the mAb surface at a flow rate of 30 μl/min for 5 min. Surfaces could be regenerated using 10 mM glycine, pH 1.7, with a 120 sec pulse at 20 μl/min. All SPR experiments were evaluated with Biacore T200 Software v 3.0. […] Regeneration conditions were the same as above. Data were fit to a 1:1 binding model and analyzed using the Biacore T200 Software v3.0.

[7] = target: T3, peptide #3 (30 aa) (human); test: ELISA on coated peptide or FC5DIE3IR, mAb detected with HRP anti-mouse Fc, Abs 450nm
T3 construct: Custom-synthesized (Biomatik); also called pep #3; P3
Description: (§4) The peptides were custom-synthesized (Biomatik) and tested for antibody binding by ELISA. […] The wells were blocked with 1% BSA in TBS-T for 30 min and then incubated with 1:1000 dilution of anti-hNaᵥ1.7 mAb at room temperature (RT) for one hr.

[8] = target: T4, peptide #40a (40 aa) (human); test: as above
T4 construct: Custom-synthesized (Biomatik); also called pep #40a; P40a
T4 peptide: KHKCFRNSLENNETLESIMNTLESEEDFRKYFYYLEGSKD
Description: as §4

[9] = target: T1, FC5DIE3IR recombinant protein; test: ELISA on coated FC5DIE3IR, serial dilutions of purified mAb; fit One site - Specific binding with Hill slope
Description: as §3
(§5) Evaluation of apparent affinity in ELISA. Purified antibodies were assessed for their binding activity by ELISA in a dose-dependent binding curve. Serial 1/3 dilutions of purified mAbs starting at 120 nM were applied onto wells and ELISA was performed as described above (screening section). The data were analyzed with GraphPad Prism software using one-site specific binding-with Hill slope non-linear regression curve fit model to determine Bₘₐₓ (maximum specific binding) and Kdₐₚₚ (concentration needed to achieve a half-maximum binding at equilibrium) for each mAb tested.

[10] = target: T1, FC5DIE3IR recombinant protein; test: ELISA on coated FC5DIE3IR, serial dilutions of purified mAb, OD 405 nm; fit One site - Specific binding with Hill slope; apparent Kd in the unit of the concentration axis (nM), the table itself prints no unit
Description: as §3, §5

[11] = target: T1, FC5DIE3IR recombinant protein; test: SPR (Biacore T200), VHH flowed over immobilized FC5DIE3IR, steady state fit, 25 C
Description: as §1, §2

[12] = target: T2, VHH FC5; test: phage ELISA of immune-library colonies, phage supernatant on coated FC5DIE3IR or FC5, anti-M13-HRP, TMB; remark: listed apart in the source
[13] = target: T5, peptide #2a (20 aa) (human); test: ELISA on coated P2a, mAb at the dilutions 1:1000, 1:5000 and 1:10000, Abs 450nm
T5 construct: Custom-synthesized (Biomatik); also called pep #2a; P2a
T5 peptide: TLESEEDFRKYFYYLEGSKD
Description: as §4

[14] = target: T6, peptide #2b (20 aa) (human); test: ELISA on coated P2b, mAb at the dilutions 1:1000, 1:5000 and 1:10000, Abs 450nm
T6 construct: Custom-synthesized (Biomatik); also called pep #2b; P2b
T6 peptide: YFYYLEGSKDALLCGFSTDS
Description: as §4

[15] = target: T7, peptide #2 (30 aa) (human); test: ELISA on coated peptide or FC5DIE3IR, mAb detected with HRP anti-mouse Fc, Abs 450nm
T7 construct: Custom-synthesized (Biomatik); also called pep #2; P2
T7 peptide: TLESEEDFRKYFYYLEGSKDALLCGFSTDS
Description: as §4

T2 sequence (VHH, as listed by the source): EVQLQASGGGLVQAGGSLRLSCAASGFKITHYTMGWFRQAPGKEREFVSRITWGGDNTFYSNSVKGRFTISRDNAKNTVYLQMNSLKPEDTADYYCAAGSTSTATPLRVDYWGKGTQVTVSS
T3 sequence (peptide, as listed by the source): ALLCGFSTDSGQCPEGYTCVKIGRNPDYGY

B1: VHH DI-C (VHH)
VHH: QVKLEESGGGLVQPGESLRLSCVGSGFNFRIQAMAWFRQAPGKEREFVASISGSGATTDHADSVKGRFAISKDNARDTMYLQMNNLKPEDTAVYYCYAISQHVPPYHYWGQGTQVTVSS
notes: From the naive LAC-M library; soluble tagged monomer in protein ELISA and patch clamp; also called clone C; not shown: 6xHis and c-Myc tags on the soluble monomer
**Q.** Which “reduction of the amplitude of the Nav1.7 currents at 1 µM” value (from here on “reduction”) [1] does the source give for B1 here?
**A.** The value was 0.46%.

**Q.** Does B1 bind [2]?
**A.** Result: binds

B2: VHH DI-28 (VHH)
VHH: QVQLVESGGGLVQAGGSLRLSCAASGRTFSSSGMGWFRQAPGKDRELVAGISWSGDSAYYANSVAGRFTISRDNINNTVYLQMNSLKPEDTAVYYCAARQGGRNYATSPREYDYWGQGTQVTVSS
notes: From the FC5DIE3IR llama immune library; soluble tagged monomer in SPR; not shown: cmyc and His6 tags at the C-terminus
**Q.** With B2 as the binder, how does the Kd [3] read?
**A.** The Kd was 4.44 nM.

**Q.** What about the koff [3] of the same binder?
**A.** The koff was 0.00205 s⁻¹.

**Q.** What about the kon [3] of the same binder?
**A.** The kon was 461000 M⁻¹ s⁻¹.

**Q.** Does B2 bind [4]?
**A.** Result: no binding

B3: anti-hNav1.7 mAb 1H5 (antibody, V domains shown)
VH: EVKLVESGGGLVKPGGSLKLSCAASGFTFRSYAMSWVRQTPEKGLEWVASISSGGSTYYPDSVKGRFTISRDNAGNILYLQMSSLRSEDTAMYYCARGYDGYYERIWYYAMDYWGQGTSVTVSS
VL: DIVMTQSQKFMSTSVGDRVTVSCKASQNVGTIVAWYQQKPGQSPKALIYSASYRFSGVPDRFTGSGSGTDFTLTISNVQSEDLAEYFCQQYNTYPLTFGSGTKLEIK
**Q.** Which results are given for B3?
**A.** ELISA signal (OD 405 nm) [5]: 0.042 OD 405 nm; binding result [6]: no binding; binding result [7]: binds; binding result [8]: binds; Bmax [9]: 0.583 OD405 nm; Kd [10]: 1.6 nM

B4: VHH DI-A (VHH)
VHH: QVQLVESGGGLVQPGGSLRLSCAASGRTISSFTMGWFRQAPGAEREFVAAISRSGSSTVYAGSVKGRFTISRDNAKNTVYLQMNSLKPEDTAVYYCNAVITEPLYKTDDSYWGQGTQVTVSS
notes: From the naive LAC-M library; soluble tagged monomer in protein ELISA and patch clamp; also called clone A; not shown: 6xHis and c-Myc tags on the soluble monomer
**Q.** With B4 as the binder, how does the “reduction” value [1] read?
**A.** The value was 2.73%.

**Q.** Does B4 bind [2]?
**A.** Result: binds

B5: VHH DI-4 (VHH)
VHH: QVQLVESGGGLVQPGGSLRLSCAASGFTFSNYWMYWVRQAPGKGLERVSSIYISGGNTYYADSVKGRFTISRDNAKNTLYLQMNSLKSEDTAVYYCVKGDTFGGMDYWGKGTQVTVSS
notes: as for B2
**Q.** What does the source list for B5?
**A.** Kd [11]: 2250 nM; binding result [12]: no binding

B6: anti-hNav1.7 mAb 1B6 (antibody, V domains shown)
VH: QVQLKESGPGLVAPSQSLSITCTVSGFSLSRYNVHWVRQPPGKGLEWLGMIWGGGSTDYNSALKSRLSISKDNSKSQVFLKMNSLQTDDTAMYYCARNGANWDWFAYWGQGTLVTVSA
VL: not shown
notes: also called IB6; F236-1B6
**Q.** With B6 as the binder, how does the “ELISA signal (OD 405 nm)” value [5] read?
**A.** The value was 0.028 OD 405 nm.

**Q.** Does B6 bind [6]?
**A.** Result: no binding

**Q.** Does B6 bind [13]?
**A.** Result: no binding (tested: 1:1000 dilution)

**Q.** Does B6 bind [14]?
**A.** Result: no binding (tested: 1:1000 dilution)

**Q.** Does B6 bind [15]?
**A.** Result: binds

**Q.** Does B6 bind [7]?
**A.** Result: no binding

**Q.** Does B6 bind [8]?
**A.** Result: binds

**Q.** And the Bmax [9]?
**A.** The Bmax was 1.07 OD405 nm.

**Q.** And the Kd [10]?
**A.** Its Kd is 1.33 nM.

B7: VHH DI-E (VHH)
VHH: QVKLEESGGGLVQPGGSLRLSCAASEFTFSSSWGHWVRQAPGKGLKWVSSINSGGEGTYYADSVKGRFTISRDNGKNTLYLEMNSLKSEDTAVYYCTSASGAWGQGIQVTVSS
notes: From the naive LAC-M library; also called clone E; not shown: 6xHis and c-Myc tags on the soluble monomer
**Q.** Does B7 bind [2]?
**A.** Result: binds

B8: VHH DI-H (VHH)
VHH: QVKLEESGGGLVQAGESLRLSCVNSGSTFSIYAMGWYRQAPGKQRELVAAISSVGRTNYADSVKGRFTISRAGAKNTVYLHMNNLKPEDTAVYSCITYYQNAMYFGQGTQVTVSS
notes: From the naive LAC-M library; soluble tagged monomer in protein ELISA and patch clamp; also called clone H; not shown: 6xHis and c-Myc tags on the soluble monomer
**Q.** What does the source list for B8?
**A.** reduction of the amplitude of the Nav1.7 currents at 1 µM [1]: 1.72%; binding result [2]: binds

B9: VHH DI-B (VHH)
VHH: QVKLEESGGGLVPPGESLRLTCAATGQTASVYEMAWFRRAPEKEQVYVASINWRDGDTQYHNSVKGRFIISRDNAKNTVFLQMNSLTPEDTAIYYCAARKELAGYDYWGQGTQVTVSS
notes: From the naive LAC-M library; soluble tagged monomer in protein ELISA and patch clamp; also called clone B; not shown: 6xHis and c-Myc tags on the soluble monomer
**Q.** Which “reduction” value [1] does the source give for B9 here?
**A.** Its value is 1.73%.

**Q.** Does B9 bind [2]?
**A.** Result: binds
